Test results as given in article PMC11805834 (Applied Microbiology and Biotechnology, 2025).

Target: T1, mouse CD80-Fc fusion protein (mouse, UniProt Q00609 38-246)
T1 sequence: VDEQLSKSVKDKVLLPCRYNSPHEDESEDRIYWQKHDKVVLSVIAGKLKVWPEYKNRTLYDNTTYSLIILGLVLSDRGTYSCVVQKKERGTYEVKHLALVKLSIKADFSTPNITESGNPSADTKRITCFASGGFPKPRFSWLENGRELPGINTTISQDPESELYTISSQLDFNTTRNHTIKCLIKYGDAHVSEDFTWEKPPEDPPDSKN
Test: SPR

B1: Mouse CD28 protein with His tag (receptor)
chain: NKILVKQSPLLVVDSNEVSLSCRYSYNLLAKEFRASLYKGVNSDVEVCVGNGNFTYQPQFRSNAEFNCDGDFDNETVTFRLWNLHVNHTDIYFCKIEFMYPPPYLDNERSNGTIIHIKEKHLCHTQSSPKL
  Kd: 2490 nM
